No end group written: not given here.
Key:
HLA-DQ8 monomers = experiment: Gentle SDS-PAGE assay of peptide binding to DQ8; design: species or system human; details: 100 μM peptide, 0.5 μM HLA-DQ8 monomers, 37° C., 72 h, pH 5.5
Method: Analysis of x-Id peptide binding to DQ8 using gentle SDS-PAGE assay. Gentle SDS-PAGE was used to assess formation of stable complexes between peptides and HLA-DQ8 molecules as previously described (Kim et al., 2013; Sadegh-Nasseri and Germain, 1991). Briefly, 0.5 μM of HLA-DQ8 monomers (provided by NIH tetramer core facility) were treated with thrombin to cleave and remove CLIP peptide. […] Reactions were neutralized, mixed with equal volumes of SDS-PAGE sample buffer containing 0.1% SDS (final concentration) and placed for 15 min at room temperature and run on 10% PAGE gels and silver-stained using a standard protocol.

CD4 T cells [1] = experiment: CFSE proliferation assay with soluble peptides; format: cell-based, human; details: soluble peptide, PBMCs from T1D and HC subjects, 7 days
Method: FIG. 14A-14B. […] Freshly isolated CFSE-labelled PBMCs from T1D and HC subjects were cultured in the presence or absence of indicated peptides for 7 days. Samples were stained, acquired and analyzed by FlowJo. CD4 T cells were gated and percentage of divided (CFSElow T cells) were determined. […] All peptides induced significant proliferation from diabetogenic subjects compared to HCs. n=4 per subject group, *p<0.05 by Two-way ANOVA with Sidak's multiple comparisons test. […] (FIG. 14B) Overlays show upregulation of CD69 by gated CFSElow T cells (red lines) versus […] non-proliferating (green) CD4 T cells from three subjects and three independent experiments. Numbers indicate percentages (Mean±SEM) of CFSElow CD4 T cells. CFSE proliferation assay. Freshly isolated PBMCs were washed twice with warm (37° C.) 1×PBS to remove serum that affect staining and the cells were resuspended in warm (37° C.) 1×PBS at a density of 1.5-2.0×10^6 cells/ml. Cells were labeled with 1 μM CFSE (eBioscience) for 1-2 min at 37° C. with continuous vortexing. The labeling reaction was quenched by adding chilled complete culture media. […] After 7 days of incubation, cultures were stained as indicated in FIG. legends and proliferation assessed by determining frequency of CFSElow CD4 T cells.

CD4 T cells [2] = experiment: CFSE proliferation assay with immobilized peptide-loaded DQ8 complexes; format: cell-based, human; details: PBMCs from DQ8+ T1D subjects, 7 days
Method: CFSE proliferation assay. Freshly isolated PBMCs were washed twice with warm (37° C.) 1×PBS to remove serum that affect staining and the cells were resuspended in warm (37° C.) 1×PBS at a density of 1.5-2.0×10^6 cells/ml. Cells were labeled with 1 μM CFSE (eBioscience) for 1-2 min at 37° C. with continuous vortexing. The labeling reaction was quenched by adding chilled complete culture media. CFSE-labeled cells were washed in 1×PBS, resuspended in complete media, and plated into 24-well tissue culture plates (1.5-2.0×10^6 cells/well in 1 mL complete culture medium). […] Alternatively, in a separate experiment, to evaluate the mAb-specific proliferative response, purified mAbR and mAbN (described later in the method) concentration of 2.5 and 5 ug, immobilized into the wells of 24-well plates, and used to stimulate CFSE-labeled PBMCs. CFSE labelled cells without stimulation and with CD3-28 stimulation were taken as specific negative and positive controls respectively. After 7 days of incubation, cultures were stained as indicated in FIG. legends and proliferation assessed by determining frequency of CFSElow CD4 T cells.

[3] = target: CD4 T cells from T1D subjects (antigen receptors not identified); experiment: flow cytometry, tetramer staining of CD4 T cells; x-Id-stimulated cultures, AB BLOCKADE (cells preincubated with x-mAbR)
[4] = target: CD4 T cells from T1D subjects (antigen receptors not identified); experiment: flow cytometry, tetramer staining of CD4 T cells; mimotope-stimulated cultures, AB BLOCKADE (cells preincubated with x-mAbR)
[5] = target: CD4 T cells from T1D subjects (antigen receptors not identified); experiment: flow cytometry, tetramer staining of CD4 T cells; unstimulated cultures
[6] = target: CD4 T cells from T1D subjects (antigen receptors not identified); experiment: flow cytometry, tetramer staining of CD4 T cells; x-Id-stimulated cultures, NO AB
[7] = target: CD4 T cells from T1D subjects (antigen receptors not identified); experiment: flow cytometry, tetramer staining of CD4 T cells; mimotope-stimulated cultures, NO AB
[8] = Wang et al., 2018; cited from earlier work

For “CARQEDTAMVYYFDYW (listed as Homo sapiens) [x-Id]”, the “formation of SDS-stable complexes with soluble DQ8” value (“formation of SDS-stable complexes” below) (HLA-DQ8 monomers) was “forming SDS-stable complexes” and the “proliferation of CD4 T cells (CFSElow)” value (CD4 T cells [1]) was “stimulates CD4 T cells from T1D, but not HC, subjects”.

With “CARQRFWSGPLFDYW [h-Id, CDR3 peptide of the IGVH04-b+ IgD+ clonotype from HC #1]” the “formation of SDS-stable complexes” value (HLA-DQ8 monomers) was “did not form detectable DQ8 complexes”, the “stimulation of CD4 T cells (CFSE proliferation and CD69 upregulation)” value (CD4 T cells [2]) was “no significant responses” and the “proliferation of CD4 T cells (CFSElow)” value (CD4 T cells [1]) was “did not elicit proliferation of CD4 T cells from either T1D or HCs”.

For CLIP-TET (peptide-MHC), the tetramer+ among CD4 T cells [3] was 0.08%, the tetramer+ among CD4 T cells [4] was 0.08% and the tetramer+ among CD4 T cells [5] was 0.07%. For the same molecule, the tetramer+ among CD4 T cells [6] was 0.1% and the tetramer+ among CD4 T cells [7] was 0.09%.

With “SHLVEALYLVCGERG (listed as Homo sapiens) [native insulin]” the “formation of SDS-stable complexes” value (HLA-DQ8 monomers) was “did not form detectable DQ8 complexes” and the “stimulation of CD4 T cells (CFSE proliferation and CD69 upregulation)” value (CD4 T cells [2]) was “no significant responses”.

In the case of “SHLVEELYLVAGEEG (listed as Homo sapiens) [superagonist]”, the “potency relative to native insulin B:9-23” value [8] is listed as “about 1000 fold”.

With “TP-Id: truncated version of x-Id that lacked cysteine and tryptophan at the terminals (ARQEDTAMVYYFDY)” the “formation of SDS-stable complexes” value (HLA-DQ8 monomers) was “forming SDS-stable complexes”.

Work on CARQEDTAMVYYFDYW (peptide-MHC, part only; not given: HLA-DQ8 alpha and beta chains, human, part only, also: loaded in biotinylated HLA-DQ8 monomers tetramerized with PE-streptavidin) [HLA-DQ8 tetramer loaded with x-Id peptide] yielded a tetramer+ among CD4 T cells [3] of 0.35%, a tetramer+ among CD4 T cells [4] of 0.36% and a tetramer+ among CD4 T cells [5] of 0.56%. It also gave a tetramer+ among CD4 T cells [6] of 1.03% and a tetramer+ among CD4 T cells [7] of 1.07%.

— patent publication US20220073963A1, “COMPOSITIONS AND METHODS FOR DETECTING AND TREATING TYPE 1 DIABETES AND OTHER AUTOIMMUNE DISEASES” (THE JOHNS HOPKINS UNIVERSITY, priority 2018, published 2022)
